Measurements reported in patent publication US20040005687A1, “Kinase crystal structures” (priority 2001, published 2004).
Like-named read-outs stand apart in the source and are kept apart here. Square brackets hold non-standard residues; d marks the D form. Ends that are not written are not given here. Peptide text beside a SMILES is read from it. pS = N[C@@H](COP(=O)(O)O)C(=O)O

Key:
[1] = target: His tagged pΔPH-PKB-ΔC, wild type, expressed in HEK cells (human) (UniProt P31751); experiment: cell-based or functional assay
[2] = target: His tagged pΔPH-PKB-ΔC V194A-V198A mutant (human) (UniProt P31751); experiment: cell-based or functional assay
[3] = target: ΔPH-PKB (human PKBβ residues 146-481) phosphorylated on Thr 309 (human) (UniProt P31751); experiment: cell-based or functional assay
[4] = target: pΔPH-PKBβ-ΔC (human PKBβ residues 146-460, phosphorylated in vitro on Thr-309) (human) (UniProt P31751); experiment: cell-based or functional assay
[5] = target: ΔPH-PKBβ-ΔC (human PKBβ residues 146-460, not phosphorylated on Thr-309) (human) (UniProt P31751); experiment: isothermal titration calorimetry
[6] = target: ΔPH-PKBβ-ΔC (human PKBβ residues 146-460, not phosphorylated on Thr-309) (human) (UniProt P31751); experiment: isothermal titration calorimetry, PIFtide titrated into the kinase domain
[7] = target: pΔPH-PKBβ-ΔC (human PKBβ residues 146-460, phosphorylated in vitro on Thr-309) (human) (UniProt P31751); experiment: as above
[8] = target: T1, pΔPH-PKB-ΔC (PKBβ residues 146 to 460, phosphorylated in vitro on Thr-309) (Homo sapiens, UniProt P31751); experiment: Protein kinase B assay, peptide stimulation of pΔPH-PKB-ΔC (Crosstide substrate); assay type: biochemical; conditions: for maximal fold induction at 600 µM: read-out: maximum activation (fold stimulation) of pΔPH-PKB-ΔC kinase activity; for fold lower affinity than PIFtide (from EC50 values): relative to PIFtide
T1 construct: pΔPH-PKB-ΔC (residues 146 to 460, phosphorylated in vitro on Thr-309); 6xHis (pFastBacHTa, TEV-cleavable) (N, cleaved yes); made in house; host or cells: Sf9 insect cells / baculovirus
Protocol: To test the model that Ser 474 phosphorylation promotes an interaction between the hydrophobic motif and the induced hydrophobic groove of the N-terminal lobe, thereby causing an allosteric activation of the kinase, the ability of peptides modelled on the hydrophobic motif of PKB to activate the enzyme via an intermolecular association with the N-terminal lobe was assessed.
(§1) PKB was assayed essentially as described by Andjelkovic et al. (1999) with 30 μM Crosstide (GRPRTSSAEG) as substrate except the protein kinase A inhibitor peptide was not added to the reactions. For peptide stimulation experiments the various peptides were dissolved in water and added to the kinase assay mix prior to adding the PKB protein. Peptides were synthesized by Franz Fischer at the FMI or purchased from Neosystem, Strasburg, France.
(§2) All experiments were performed in either duplicate or triplicate.

[9] = target: T2, His tagged pΔPH-PKB-ΔC wild type (Homo sapiens, UniProt P31751); experiment: PIFtide responsiveness of His tagged pΔPH-PKB-ΔC wild type expressed in HEK cells; assay type: biochemical
T2 construct: pΔPH-PKB-ΔC (residues 146 to 460, phosphorylated in vitro on Thr-309); His tag; made in house; host or cells: HEK cells (transient expression), purified on Ni-NTA
Protocol: To test the notion that a hydrophobic groove is induced in PKB to engage the hydrophobic motif, and activate the kinase, a series of His tagged pΔPH-PKB-ΔC hydrophobic groove mutants was prepared and their responsiveness to PIFtide assessed. PKB mutants were transiently expressed in HEK cells, phosphorylated in vitro with PDK1, and purified using Ni-NTA agarose.
Wild type PKB prepared using this procedure was stimulated ˜5-fold by 130 μM PIFtide (FIG. 6B).
as §1

[10] = target: T3, ΔPH-PKB phosphorylated on Thr 309 (Homo sapiens, UniProt P31751); experiment: Protein kinase B assay, peptide stimulation of ΔPH-PKB phosphorylated on Thr 309; assay type: biochemical
T3 construct: ΔPH-PKBβ (residues 146-481) on Thr309 Using PDK1; 6xHis (pFastBacHTa, TEV-cleavable) (N, cleaved yes); made in house; host or cells: Sf9 insect cells / baculovirus
Protocol: as §1, §2

[11] = target: T4, ΔPH-PKB phosphorylated on both Thr 309 and Ser 474 (Homo sapiens, UniProt P31751); experiment: Protein kinase B assay, peptide stimulation of ΔPH-PKB phosphorylated on both Thr 309 and Ser 474; assay type: biochemical
T4 construct: ΔPH-PKBβ (residues 146-481) on Thr309 Using PDK1; 6xHis (pFastBacHTa, TEV-cleavable) (N, cleaved yes); made in house; host or cells: Sf9 insect cells / baculovirus
Protocol: as §1, §2

[12] = target: T5, ΔPH-PKB-ΔC (PKBβ residues 146 to 460, not phosphorylated on Thr-309) (Homo sapiens, UniProt P31751); experiment: Protein kinase B assay, peptide stimulation of ΔPH-PKB-ΔC with unphosphorylated Thr 309; assay type: biochemical
T5 construct: ΔPH-PKB-ΔC(residues 146 to 460, not phosphorylated on Thr-309); 6xHis (pFastBacHTa, TEV-cleavable) (N, cleaved yes); made in house; host or cells: Sf9 insect cells / baculovirus
Protocol: as §1, §2

[13] = target: pΔPH-PKBβ-ΔC (human PKBβ residues 146-460, phosphorylated in vitro on Thr-309) (human) (UniProt P31751); experiment: cell-based or functional assay; remark: listed apart in the source

T1 sequence (P31751 146-460, stated change not applied): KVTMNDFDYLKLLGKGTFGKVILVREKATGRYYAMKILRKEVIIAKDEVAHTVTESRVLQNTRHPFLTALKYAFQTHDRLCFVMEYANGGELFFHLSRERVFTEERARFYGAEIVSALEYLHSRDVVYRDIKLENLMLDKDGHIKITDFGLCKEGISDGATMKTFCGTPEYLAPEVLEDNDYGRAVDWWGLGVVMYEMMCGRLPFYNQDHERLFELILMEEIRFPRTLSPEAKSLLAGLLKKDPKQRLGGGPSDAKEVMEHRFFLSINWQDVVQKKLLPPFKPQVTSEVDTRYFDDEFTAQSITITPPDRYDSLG
T2 sequence (P31751 146-460, stated change not applied): as above
His tagged pΔPH-PKB-ΔC, wild type, expressed in HEK cells (human), sequence (P31751 146-460, stated change not applied): as above
T5 sequence (P31751 146-460, stated change not applied): as above
His tagged pΔPH-PKB-ΔC V194A-V198A mutant (human), sequence (P31751 146-460 V194A/V198A): as the sequence (P31751 146-460, stated change not applied) above, with V49A, V53A counted along it
T4 sequence (P31751 146-481, stated change not applied): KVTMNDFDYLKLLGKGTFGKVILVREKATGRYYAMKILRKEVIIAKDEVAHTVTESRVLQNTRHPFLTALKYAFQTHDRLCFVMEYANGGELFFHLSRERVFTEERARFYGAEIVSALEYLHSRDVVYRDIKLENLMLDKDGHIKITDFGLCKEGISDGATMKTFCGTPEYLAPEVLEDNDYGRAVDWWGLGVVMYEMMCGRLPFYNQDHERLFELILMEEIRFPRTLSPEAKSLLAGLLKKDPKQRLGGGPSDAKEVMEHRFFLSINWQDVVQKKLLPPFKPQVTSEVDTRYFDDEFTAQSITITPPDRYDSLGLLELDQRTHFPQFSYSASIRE
T3 sequence (P31751 146-481, stated change not applied): as above

PIFtide (peptide)
stimulation of kinase activity by 130 µM PIFtide [1]: 5 fold
PIFtide activation relative to wild type (% of wild type) [2]: 25
stimulation of kinase activity towards Crosstide [3]: 5 fold
EC50 of kinase activation [4]: 3 µM
peptide concentration giving maximum activation [4]: 20 µM
specific activity when maximally activated by PIFtide [4]: 350 nmol/min/mg
stimulation of kinase activity towards Crosstide [4]: 15 fold
enthalpy change (ΔH) [5]: -16 kcal/mol
entropy term (TΔS) [5]: -9.2 kcal/mol
Kd [6]: 5.5 µM
Kd [7]: 6 µM

CC[C@H](C)[C@H](NC(=O)[C@H](Cc1ccc(O)cc1)NC(=O)[C@H](CC(=O)O)NC(=O)[C@H](Cc1ccccc1)NC(=O)[C@H](CC(=O)O)NC(=O)[C@H](CCCNC(=N)N)NC(=O)[C@H](Cc1ccccc1)NC(=O)[C@H](CCSC)NC(=O)[C@H](CCC(=O)O)NC(=O)[C@H](CCC(N)=O)NC(=O)[C@H](CCC(=O)O)NC(=O)[C@H](CCC(=O)O)NC(=O)[C@H](CCC(=O)O)NC(=O)[C@H](CO)NC(=O)[C@H](CC(C)C)NC(=O)[C@@H](NC(=O)[C@H](CCCNC(=N)N)NC(=O)[C@@H]1CCCN1C(=O)[C@H](CCC(=O)O)NC(=O)[C@@H](N)CCCNC(=N)N)[C@@H](C)CC)C(=O)N[C@@H](C)C(=O)N[C@@H](CC(=O)O)C(=O)N[C@@H](Cc1c[nH]c2ccccc12)C(=O)O [PIFtide, reference compound] (H-REPRILSEEEQEMFRDFDYIADW-OH; N-terminus and C-terminus assumed)
maximal fold induction at 600 µM [8]: 15
fold induction at 130 µM ([9]; read-out: stimulation of wild type PKB prepared from HEK cells): ~5
activation of ΔPH-PKB phosphorylated on Thr 309 [10]: 5 fold

CC[C@H](C)[C@H](NC(=O)[C@H](CO)NC(=O)[C@H](C)NC(=O)[C@H](CO)NC(=O)[C@H](Cc1ccc(O)cc1)NC(=O)[C@H](CC(=O)O)NC(=O)[C@H](Cc1ccccc1)NC(=O)[C@H](CCC(N)=O)NC(=O)[C@@H]1CCCN1C(=O)[C@H](Cc1ccccc1)NC(=O)[C@H](Cc1c[nH]cn1)NC(=O)[C@@H](NC(=O)[C@H](CCCNC(=N)N)NC(=O)[C@H](CCC(N)=O)NC(=O)[C@H](CC(=O)O)NC(=O)[C@H](CC(C)C)NC(=O)[C@H](CCC(=O)O)NC(=O)[C@H](CC(C)C)NC(=O)[C@H](CC(C)C)NC(=O)CN)[C@@H](C)O)C(=O)N[C@@H](CCCNC(=N)N)C(=O)N[C@@H](CCC(=O)O)C(=O)O [PKB HM-D] (H-GLLELDQRTHFPQFDYSASIRE-OH; N-terminus and C-terminus assumed)
maximal fold induction at 600 µM [8]: 3
fold lower affinity than PIFtide (from EC50 values) [8]: ~1000 fold

CC[C@H](C)[C@H](NC(=O)[C@H](CO)NC(=O)[C@H](C)NC(=O)[C@H](CO)NC(=O)[C@H](Cc1ccc(O)cc1)NC(=O)[C@H](COP(=O)(O)O)NC(=O)[C@H](Cc1ccccc1)NC(=O)[C@H](CCC(N)=O)NC(=O)[C@@H]1CCCN1C(=O)[C@H](Cc1ccccc1)NC(=O)[C@H](Cc1c[nH]cn1)NC(=O)[C@@H](NC(=O)[C@H](CCCNC(=N)N)NC(=O)[C@H](CCC(N)=O)NC(=O)[C@H](CC(=O)O)NC(=O)[C@H](CC(C)C)NC(=O)[C@H](CCC(=O)O)NC(=O)[C@H](CC(C)C)NC(=O)[C@H](CC(C)C)NC(=O)CN)[C@@H](C)O)C(=O)N[C@@H](CCCNC(=N)N)C(=O)N[C@@H](CCC(=O)O)C(=O)O [PKB HM-P, GLLELDQRTHFPQFpSYSASIRE] (H-GLLELDQRTHFPQF[pS]YSASIRE-OH; N-terminus and C-terminus assumed)
maximal fold induction at 600 µM [8]: 4
fold lower affinity than PIFtide (from EC50 values) ([8]; listed as phosphorylated HM-peptide): ~1000 fold
activation of wild type PKB prepared from HEK cells (in words) [9]: did not elicit measurable activation
further activation of ΔPH-PKB phosphorylated on both Thr 309 and Ser 474 (in words) [11]: did not further activate
activation of ΔPH-PKB-ΔC with unphosphorylated Thr 309 (in words) [12]: unable to activate

MFRDFDYIADW [PIFtide1, 11-residue peptide encompassing the six-residue hydrophobic motif of PIFtide]
activation of pΔPH-PKB-ΔC by modified PIFtide and HM peptides (in words) ([8]; PIFtide concentrations 210-250 μM, PKB HM-peptide up to 1.2 mM, FIG. 6A): essentially recapitulates the activation

GLLELDQRTHFPQFSYSASIRE [PKB HM-S]
stimulation of pΔPH-PKB-ΔC kinase activity (in words) ([8]; Crosstide substrate, dose response FIG. 5): did not stimulate

GLLELDQRTHFPQFDYSASIRE [PKB HM-D]
EC50 of kinase activation (estimated from FIG. 5A) [13]: 3600 µM
fold lower affinity than PIFtide, from estimated EC50 [13]: 1000 fold
stimulation of kinase activity towards Crosstide [13]: 3 fold

GLLELDQRTHFPQF[pS]YSASIRE [PKB HM-P]
EC50 of kinase activation (estimated from FIG. 5A) [13]: 2300 µM
fold lower affinity than PIFtide, from estimated EC50 [13]: 1000 fold
stimulation of kinase activity towards Crosstide [13]: 4 fold
